According to PMC8053098:

Target: Escherichia coli MnmA, as-purified (aerobically purified, tag removed) (Escherichia coli) (UniProt P25745)
Test: SEC-MALS

stoichiometry N: 2
Substance: Escherichia coli MnmA, as-purified (aerobically purified, tag removed) (from UniProt P25745 1-368) (enzyme)
